Values joined by “and” are separate entries in the source; they are usually repeats but may differ in a detail not shown here. Equal values may be shown once. Read-outs that look alike come from different tables or passages of the source.
Columns and labels:
[1] = target: chimeric receptor mouse flk-1 (VEGFR-2)/human fms on transfected 3T3 cells (C441) (mouse; human) (UniProt P35918); experiment: saturation binding to intact C441 cells, colorimetric detection (FIG. 7)
[2] = target: chimeric receptor mouse flk-1 (VEGFR-2)/human fms on transfected 3T3 cells (C441) (mouse; human) (UniProt P35918); experiment: cell-based or functional assay
[3] = target: soluble fusion protein KDR-AP (KDR (VEGFR-2) extracellular domain fused to human placental alkaline phosphatase) (human) (UniProt P35968); experiment: BIAcore, KDR-AP immobilized
[4] = target: soluble fusion protein KDR-AP (KDR (VEGFR-2) extracellular domain fused to human placental alkaline phosphatase) (human) (UniProt P35968); experiment: competitive VEGF blocking ELISA: KDR-AP binding to immobilized VEGF165
[5] = target: human KDR (VEGFR-2), immobilized on ELISA plates (construct not stated) (human) (UniProt P35968); experiment: direct binding ELISA on KDR-coated plates, anti-E tag-HRP detection
[6] = target: human KDR (VEGFR-2), immobilized on ELISA plates (construct not stated) (human) (UniProt P35968); experiment: direct binding ELISA on KDR-coated plates (ED50, 50% of maximum binding)
[7] = target: soluble fusion protein KDR-AP (KDR (VEGFR-2) extracellular domain fused to human placental alkaline phosphatase) (human) (UniProt P35968); experiment: competitive ELISA: KDR-AP binding to immobilized VEGF165
[8] = target: KDR (VEGFR-2) expressed on the surface of HUVEC (human) (UniProt P35968); experiment: cell-based or functional assay
[9] = target: soluble fusion protein KDR-AP (KDR (VEGFR-2) extracellular domain fused to human placental alkaline phosphatase) (human) (UniProt P35968); experiment: BIAcore, KDR-AP immobilized; remark: listed apart in the source
[10] = scale: % of the fully stimulated receptor control

Chain of soluble fusion protein KDR-AP (KDR (VEGFR-2) extracellular domain fused to human placental alkaline phosphatase) (human) (P35968 other isoform, or with tags, fused parts or gaps): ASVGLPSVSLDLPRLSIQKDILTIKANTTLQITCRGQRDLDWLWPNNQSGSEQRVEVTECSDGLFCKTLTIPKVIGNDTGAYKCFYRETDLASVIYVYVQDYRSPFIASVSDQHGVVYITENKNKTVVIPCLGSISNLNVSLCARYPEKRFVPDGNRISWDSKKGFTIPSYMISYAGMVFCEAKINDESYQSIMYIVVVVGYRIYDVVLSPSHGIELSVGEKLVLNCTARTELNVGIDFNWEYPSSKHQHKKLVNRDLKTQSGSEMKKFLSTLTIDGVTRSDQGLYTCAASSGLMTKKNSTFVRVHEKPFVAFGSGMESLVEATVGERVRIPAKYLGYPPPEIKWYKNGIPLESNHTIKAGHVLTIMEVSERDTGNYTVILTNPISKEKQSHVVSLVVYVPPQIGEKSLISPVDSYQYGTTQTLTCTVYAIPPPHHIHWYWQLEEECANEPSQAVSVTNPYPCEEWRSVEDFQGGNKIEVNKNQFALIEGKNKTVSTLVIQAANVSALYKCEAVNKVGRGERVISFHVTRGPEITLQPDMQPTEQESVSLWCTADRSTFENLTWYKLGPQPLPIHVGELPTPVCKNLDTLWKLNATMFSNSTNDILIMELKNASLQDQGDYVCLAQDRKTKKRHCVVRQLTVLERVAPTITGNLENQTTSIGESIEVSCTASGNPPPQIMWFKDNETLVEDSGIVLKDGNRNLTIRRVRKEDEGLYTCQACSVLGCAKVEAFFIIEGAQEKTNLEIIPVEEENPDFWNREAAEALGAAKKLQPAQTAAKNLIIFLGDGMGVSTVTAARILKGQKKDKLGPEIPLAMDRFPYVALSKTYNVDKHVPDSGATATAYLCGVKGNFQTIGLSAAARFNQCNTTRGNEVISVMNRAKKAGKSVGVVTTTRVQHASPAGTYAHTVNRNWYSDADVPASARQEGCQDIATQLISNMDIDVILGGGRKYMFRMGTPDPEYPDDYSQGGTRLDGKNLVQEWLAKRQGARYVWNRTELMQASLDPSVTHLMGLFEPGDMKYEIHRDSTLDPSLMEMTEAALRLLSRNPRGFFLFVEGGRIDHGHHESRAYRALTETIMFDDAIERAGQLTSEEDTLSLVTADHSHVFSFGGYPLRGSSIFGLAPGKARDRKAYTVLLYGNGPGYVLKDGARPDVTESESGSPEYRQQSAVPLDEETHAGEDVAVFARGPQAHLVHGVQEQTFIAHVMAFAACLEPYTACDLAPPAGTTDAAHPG
Chain of chimeric receptor mouse flk-1 (VEGFR-2)/human fms on transfected 3T3 cells (C441) (mouse; human) (P35918 other isoform, or with tags, fused parts or gaps mutant limits assumed): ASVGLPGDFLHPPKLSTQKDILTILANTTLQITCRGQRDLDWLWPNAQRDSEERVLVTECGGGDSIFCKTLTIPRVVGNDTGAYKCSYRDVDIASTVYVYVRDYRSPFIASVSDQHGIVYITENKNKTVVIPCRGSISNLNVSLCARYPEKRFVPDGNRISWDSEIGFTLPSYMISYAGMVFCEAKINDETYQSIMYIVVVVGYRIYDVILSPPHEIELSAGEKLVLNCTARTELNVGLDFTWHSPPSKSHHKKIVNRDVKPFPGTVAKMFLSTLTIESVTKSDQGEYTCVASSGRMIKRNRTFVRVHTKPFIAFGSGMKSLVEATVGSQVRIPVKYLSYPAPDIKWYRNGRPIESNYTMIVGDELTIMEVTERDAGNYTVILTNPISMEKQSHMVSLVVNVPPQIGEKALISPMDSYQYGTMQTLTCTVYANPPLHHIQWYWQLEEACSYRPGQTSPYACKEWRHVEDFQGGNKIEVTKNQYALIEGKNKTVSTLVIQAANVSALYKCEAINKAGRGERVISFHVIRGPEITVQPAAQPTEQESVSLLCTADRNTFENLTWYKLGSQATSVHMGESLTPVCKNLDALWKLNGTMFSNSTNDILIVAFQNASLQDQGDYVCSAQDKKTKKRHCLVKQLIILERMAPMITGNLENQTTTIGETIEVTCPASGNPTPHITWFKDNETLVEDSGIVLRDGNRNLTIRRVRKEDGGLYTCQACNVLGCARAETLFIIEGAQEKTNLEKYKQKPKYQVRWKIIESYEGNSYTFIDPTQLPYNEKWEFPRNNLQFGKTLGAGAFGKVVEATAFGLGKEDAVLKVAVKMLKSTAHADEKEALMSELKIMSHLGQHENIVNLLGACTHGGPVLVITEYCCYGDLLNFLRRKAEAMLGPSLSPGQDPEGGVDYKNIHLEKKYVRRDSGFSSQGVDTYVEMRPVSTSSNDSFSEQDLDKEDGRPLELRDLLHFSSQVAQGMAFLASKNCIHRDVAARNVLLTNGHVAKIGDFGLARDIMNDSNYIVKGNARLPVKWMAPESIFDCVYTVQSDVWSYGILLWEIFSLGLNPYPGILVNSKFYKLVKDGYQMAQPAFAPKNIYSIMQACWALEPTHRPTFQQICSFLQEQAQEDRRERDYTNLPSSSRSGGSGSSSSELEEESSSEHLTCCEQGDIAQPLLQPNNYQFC
Chain of KDR (VEGFR-2) expressed on the surface of HUVEC (human) (P35968 20-1356): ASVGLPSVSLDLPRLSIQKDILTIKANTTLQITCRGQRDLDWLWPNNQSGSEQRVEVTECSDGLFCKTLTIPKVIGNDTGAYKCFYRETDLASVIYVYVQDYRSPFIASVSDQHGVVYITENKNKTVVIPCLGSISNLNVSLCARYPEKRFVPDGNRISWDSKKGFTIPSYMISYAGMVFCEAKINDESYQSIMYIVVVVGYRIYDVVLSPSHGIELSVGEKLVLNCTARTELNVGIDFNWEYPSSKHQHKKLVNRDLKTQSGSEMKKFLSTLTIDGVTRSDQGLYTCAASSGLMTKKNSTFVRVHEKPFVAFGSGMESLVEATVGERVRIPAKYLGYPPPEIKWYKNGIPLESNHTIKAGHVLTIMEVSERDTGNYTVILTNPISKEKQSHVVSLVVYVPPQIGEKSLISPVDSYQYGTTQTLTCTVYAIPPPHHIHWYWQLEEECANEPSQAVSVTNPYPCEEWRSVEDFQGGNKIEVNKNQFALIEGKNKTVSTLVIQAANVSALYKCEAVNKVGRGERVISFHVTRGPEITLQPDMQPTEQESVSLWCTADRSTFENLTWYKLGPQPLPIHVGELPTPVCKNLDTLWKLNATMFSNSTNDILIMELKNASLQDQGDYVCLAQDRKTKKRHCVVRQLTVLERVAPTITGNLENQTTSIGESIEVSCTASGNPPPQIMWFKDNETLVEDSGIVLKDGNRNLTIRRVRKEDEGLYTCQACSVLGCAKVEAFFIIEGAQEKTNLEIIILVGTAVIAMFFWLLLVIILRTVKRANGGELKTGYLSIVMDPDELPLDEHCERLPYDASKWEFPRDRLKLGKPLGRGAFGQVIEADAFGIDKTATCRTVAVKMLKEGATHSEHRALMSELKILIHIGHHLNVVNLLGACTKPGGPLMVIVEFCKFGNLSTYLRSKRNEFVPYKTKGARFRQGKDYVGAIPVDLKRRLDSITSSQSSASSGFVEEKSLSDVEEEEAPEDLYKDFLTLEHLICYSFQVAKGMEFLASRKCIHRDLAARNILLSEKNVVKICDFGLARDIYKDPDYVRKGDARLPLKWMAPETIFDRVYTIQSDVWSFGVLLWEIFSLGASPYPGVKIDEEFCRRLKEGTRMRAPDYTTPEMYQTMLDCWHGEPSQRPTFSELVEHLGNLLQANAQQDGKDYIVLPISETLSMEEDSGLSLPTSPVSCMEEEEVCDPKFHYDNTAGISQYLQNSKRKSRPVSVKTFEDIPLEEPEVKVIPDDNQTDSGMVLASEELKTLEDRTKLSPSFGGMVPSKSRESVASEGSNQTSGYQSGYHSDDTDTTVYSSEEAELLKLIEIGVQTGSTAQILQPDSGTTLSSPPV
Chain of human KDR (VEGFR-2), immobilized on ELISA plates (construct not stated) (human) (P35968 20-764 limits assumed): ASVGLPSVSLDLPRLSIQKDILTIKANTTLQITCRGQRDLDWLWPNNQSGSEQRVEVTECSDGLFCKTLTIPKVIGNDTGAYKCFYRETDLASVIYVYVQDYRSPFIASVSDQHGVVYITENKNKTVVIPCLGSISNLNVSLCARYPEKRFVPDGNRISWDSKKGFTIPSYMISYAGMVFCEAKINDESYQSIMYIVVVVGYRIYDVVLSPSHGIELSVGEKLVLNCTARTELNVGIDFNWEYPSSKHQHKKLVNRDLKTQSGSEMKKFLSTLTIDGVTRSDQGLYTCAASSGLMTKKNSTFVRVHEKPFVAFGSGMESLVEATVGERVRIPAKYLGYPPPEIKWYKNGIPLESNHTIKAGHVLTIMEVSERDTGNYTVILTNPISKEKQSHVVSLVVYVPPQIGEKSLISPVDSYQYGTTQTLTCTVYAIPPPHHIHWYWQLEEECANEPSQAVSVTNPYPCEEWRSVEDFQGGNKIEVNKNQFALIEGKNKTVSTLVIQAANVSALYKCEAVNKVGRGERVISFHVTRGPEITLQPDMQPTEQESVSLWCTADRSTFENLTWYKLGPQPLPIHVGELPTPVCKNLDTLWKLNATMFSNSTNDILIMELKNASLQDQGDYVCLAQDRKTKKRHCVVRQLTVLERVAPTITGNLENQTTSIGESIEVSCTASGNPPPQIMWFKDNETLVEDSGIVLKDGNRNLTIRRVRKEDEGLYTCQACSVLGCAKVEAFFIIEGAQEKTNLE

relative apparent affinity [1] [ng/mL] | phosphorylation of flk-1 (VEGFR-2) by VEGF165 (40 ng/ml), antibody titration [2] | phosphorylation level by densitometry, antibody added with ligand (C) [2, 10] | phosphorylation level by densitometry, antibody prebound (P) [2, 10] | Kd [3] [nM] | koff [3] [s⁻¹] | kon [3] [M⁻¹ s⁻¹] | IC50 [4] [nM] | EC50 (read off the curve) [5] [nM] | EC50 [6] [nM] | IC50 [7] [nM] | EC50 of inhibition of VEGF induced DNA synthesis ([3H]-TdR) in HUVEC [8] [nM] | antibody concentration required to inhibit 50% of VEGF-induced mitogenesis of HUVEC [8] [nM] | koff [9] [s⁻¹] | kon [9] [M⁻¹ s⁻¹] | Binder
500 | > 0.5 µg/mL and < 1 µg/mL | 40 | 6 |  |  |  |  |  |  |  |  |  |  |  | rat anti-mouse flk-1 (VEGFR-2) monoclonal antibody DC-101 (antibody, from another filing, V domains shown) VH: EVQLVETGGGLVQPGNSLKLSCATSGFIFSTTWMNWIRQTPGKRLEWLAQIEDKSNNYFISYSESVKGRFTISRDDSKSSVYLQMNNLKEEDTAIYYCSWKYRSNYYFDYWGQGVMVTVSS VL: DIVLTQSPALAVSLEQRATISCKTSQNVDYYGISYLHWYQQKPGQQPKLLIYEGSNLASGIPARFSGSGSGTDFTLTIDPVEADDIVTYYCQQSKDYPYTFGAGTKLELKR
 |  |  |  | 2.1 | 0.00023 | 110000 | 3 | 1 | 0.3 | 2 | 5 | 6 | 0.000227 | 111000 | anti-KDR (VEGFR-2) single chain antibody scFv p1C11 (scFv, from a related filing, not shown: small tags and cut ends) scFv: QVKLQQSGAELVGSGASVKLSCTTSGFNIKDFYMHWVKQRPEQGLEWIGWIDPENGDSDYAPKFQGKATMTADSSSNTAYLQLSSLTSEDTAVYYCNAYYGDYEGYWGQGTTVTVSSGGGGSGGGGSGGGGSDIELTQSPAIMSASPGEKVTITCSASSSVSYMHWFQQKPGTSPKLWIYSTSNLASGVPARFSGSGSGTSYSLTISRMEAEDAATYYCQQRSSYPFTFGSGTKLEIK
